FireProtDB (doi:10.1110/ps.8.12.2645)

Conditions: Saccharomyces cerevisiae (strain ATCC 204508 / S288c), pH 6, Thermal, DSC, Sodium phosphate 0.1 M, reversible: yes

Chain of Cytochrome c isoform 1 F88Y, P00044 (P00044 whole entry F88Y, canonical isoform): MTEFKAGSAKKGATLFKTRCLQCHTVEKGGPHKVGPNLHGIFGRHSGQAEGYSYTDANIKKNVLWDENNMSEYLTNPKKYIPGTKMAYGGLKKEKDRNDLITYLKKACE
Chain of Cytochrome c isoform 1 L91A, P00044 (P00044 whole entry L91A, canonical isoform): as the sequence (P00044 whole entry F88Y, canonical isoform) above, with Y88F, L91A counted along it
Chain of Cytochrome c isoform 1 wild type, P00044 (P00044 whole entry, canonical isoform): as the sequence (P00044 whole entry F88Y, canonical isoform) above, with Y88F counted along it
Chain of Cytochrome c isoform 1 F88Y|L91A, P00044 F88Y L91A (P00044 whole entry F88Y/L91A, canonical isoform): as the sequence (P00044 whole entry F88Y, canonical isoform) above, with L91A counted along it

Substance	ddG of mutation (higher = less stable) (25 °C, structure 1YCC) [kcal/mol]	heat capacity change of unfolding (25 °C, structure 1YCC) [kcal/mol/K]	unfolding enthalpy (calorimetric) (25 °C, structure 1YCC) [kcal/mol]	unfolding free energy (25 °C, structure 1YCC) [kcal/mol]	unfolding enthalpy (calorimetric) (60 °C, structure 1YCC) [kcal/mol]	unfolding free energy (60 °C, structure 1YCC) [kcal/mol]	Tm (structure 1YCC) [°C]	heat capacity change of unfolding (structure 1YCC) [kcal/mol/K]	unfolding enthalpy (calorimetric) (structure 1YCC) [kcal/mol]	unfolding enthalpy (van 't Hoff) (structure 1YCC) [kcal/mol]	heat capacity change of unfolding (25 °C) [kcal/mol/K]	unfolding enthalpy (calorimetric) (25 °C) [kcal/mol]	unfolding free energy (25 °C) [kcal/mol]	unfolding enthalpy (calorimetric) (60 °C) [kcal/mol]	Tm [°C]	heat capacity change of unfolding [kcal/mol/K]	unfolding enthalpy (calorimetric) [kcal/mol]	unfolding enthalpy (van 't Hoff) [kcal/mol]
Cytochrome c isoform 1 L91A, P00044	2.8	0.45	23	2.7	79	2.9	46.3	0.45	57	88								
Cytochrome c isoform 1 F88Y, P00044	0.7	0.58	27	4.8	83	1.01	55.8	0.58	76	103								
Cytochrome c isoform 1 F88Y|L91A, P00044 F88Y L91A					80		45.6	0.31	57	92								
Cytochrome c isoform 1 wild type, P00044											0.26	26	5.5	81	60	0.26	81	110
